Measurements as given in publication PMC4452869.

Tests used:
[1] = target: HIV-1 reverse transcriptase p51 (HIV-1) (UniProt P03366); test: NMR (1H-13C HMQC of Ile delta-methyl-labelled protein); 150 µM [^13CH3-Ile]p51 in 25 mM Tris-HCl-d11 in D2O (pD 7.5), 800 mM KCl, 20 mM MgCl2, 0.02% NaN3 (high salt to stabilise the homodimer); monomer to dimer
[2] = target: HIV-1 reverse transcriptase p66 (HIV-1); test: NMR (1H-13C HMQC of Ile delta-methyl-labelled protein, time-dependent); [^13CH3-Ile]p66 homodimerization; successive 5.5-hr spectra after dimerization conditions were introduced; 25 mM Tris-HCl-d11 in D2O, pD 7.51, 100 mM KCl, 0.02% NaN3; 35 °C; apparent time constants; monomer to dimer
[3] = target: HIV-1 reverse transcriptase p66 (HIV-1); test: SEC; HiLoad 26/60 superdex 200 column, p66 and p66∆PL run separately; 50 mM Tris–HCl, pH 8.0, 200 mM NaCl, 1 mM EDTA; 0.5 ml/min; 4 °C; absorbance at 280 nm; monomer to dimer
[4] = target: HIV-1 reverse transcriptase p66 (HIV-1); test: NMR (1H-13C HMQC of Ile delta-methyl-labelled protein, time-dependent); 45 µM [^13CH3-Ile]p66∆PL with 90 µM unlabeled p66 (twofold excess); 25 mM Tris-HCl-d11, pD 7.5, 100 mM KCl, 0.02% NaN3; successive 5.5-hr spectra; 35 °C; apparent time constants

**Q.** For “HIV-1 reverse transcriptase p51 (from UniProt P03366 600-1039) (natural protein)”, which percent dimer [1] is on record?
**A.** 90%

**Q.** “HIV-1 reverse transcriptase p66 (enzyme)” was tested. Which apparent time constant of dimer formation (Ile382E resonance) [2] did it give?
**A.** 2.4 h

**Q.** What about the dimer/monomer ratio (percent dimer) [3] of the same substance?
**A.** 75 % dimer

**Q.** And the stoichiometry N [3]?
**A.** 2

**Q.** With “p66∆PL, p66 deletion mutant lacking palm loop residues 219–230 (enzyme)” as the substance, how does the apparent time constant of growth of the dimer resonance (Ile47C) [4] read?
**A.** 8.8 h

**Q.** And the apparent time constant of monomer decay (Ile47M resonance) [4]?
**A.** 9.1 h

**Q.** And the apparent time constant of monomer decay (Ile393M resonance) [4]?
**A.** 9.3 h

**Q.** And the mean monomer decay time constant [4]?
**A.** 9 h

**Q.** What about the percent dimerized (limit reached) [4] of the same substance?
**A.** 80 to 90%

**Q.** And the percent of the Ile47' intensity in the dimer species, initial spectra [4]?
**A.** 30 to 40%

**Q.** What about the percent of the Ile47' intensity in the dimer species, limiting value [4] of the same substance?
**A.** 80%
